Fraction ligated data for 72 sequences are collected here from the supplement of paper PMC6755084.

This series relates to F1*sub RNA substrate (template-directed ligation). Put plainly: fraction ligated after 30 min (ligated reads / total reads); higher = more ligase activity; sequences stand for … in GAGACCGCAACTGAAAAGTTGT…AGTTCTGCACGTAGAAGCAAAAGGC
As to conditions: 42 °C. The method in brief:
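Oligo-pool templates of ligase ribozyme variants were PCR-amplified, T7-transcribed and gel-purified. Ligated and unligated bands were gel-separated, reverse transcribed with barcoded primers, and MiSeq-sequenced; core bases were filtered at quality ≥20. Fraction ligated per variant was ligated reads over total reads.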
“TATCACTGTCGAAGCACTTTGGATGGGTTGA [3d1374]” registered a fraction ligated of 0.826.

With “TATCACTGTCGAGACACTTTGGATGGGTTGA [3d1372]”, the fraction ligated came to 0.826.

On to “TATCACTGTCGTAAAACTTTGGATGGGTTGA [3d1398]”, for which the fraction ligated is 0.842.

Take “TATCACTGTCGTAAACACTTGGATGGGTTGA [3d1401]”: the fraction ligated came to 0.794.

Take “TATCACTGTCGTAAACACTTTGATGGGTTGA [3d1402]”: the fraction ligated was 0.669.

“TATCACTGTCGTAAACACTTTGGAGGGTTGA [3d1404]” came in with a fraction ligated of 0.0511.

As to “TATCACTGTCGTAAACACTTTGGATGGGTTA [3d1406]”, the fraction ligated was found to be 0.761.

“TATCACTGTCGTAAACACTTTGGATGGGTTG [3d1407]” showed a fraction ligated of 0.83.

With “TATCACTGTCGTAAACACTTTGGATGGTTGA [3d1405]”, the fraction ligated was 0.166.

In the case of “TATCACTGTCGTAAACACTTTGGTGGGTTGA [3d1403]”, the fraction ligated was found to be 0.086.

Sequence “TATCACTGTCGTAAACATTTGGATGGGTTGA [3d1400]” displayed a fraction ligated of 0.822.

Sequence “TATCACTGTCGTAAACCTTTGGATGGGTTGA [3d1399]” gave a fraction ligated of 0.806.

Sequence “TATCACTGTCGTAACACTTTGGATGGGTTGA [3d1386]” displayed a fraction ligated of 0.826.

“TATCACTGTCGTAAGAACTTGGATGGGTTGA [3d1419]” displayed a fraction ligated of 0.847.

Sequence “TATCACTGTCGTAAGAACTTTGATGGGTTGA [3d1420]” displayed a fraction ligated of 0.652.

Sequence “TATCACTGTCGTAAGAACTTTGGAGGGTTGA [3d1422]” yielded a fraction ligated of 0.0317.

“TATCACTGTCGTAAGAACTTTGGATGGGTTA [3d1424]”: the fraction ligated was determined as 0.851.

As to “TATCACTGTCGTAAGAACTTTGGATGGGTTG [3d1425]”, the fraction ligated stood at 0.87.

As to “TATCACTGTCGTAAGAACTTTGGATGGTTGA [3d1423]”, the fraction ligated came out at 0.26.

Take “TATCACTGTCGTAAGAACTTTGGTGGGTTGA [3d1421]”: the fraction ligated was determined as 0.079.

“TATCACTGTCGTAAGAATTTGGATGGGTTGA [3d1418]” had a fraction ligated of 0.804.

Take “TATCACTGTCGTAAGACACTGGATGGGTTGA [3d1440]”: the fraction ligated was 0.824.

Sequence “TATCACTGTCGTAAGACACTTGATGGGTTGA [3d1441]” showed a fraction ligated of 0.77.

In the case of “TATCACTGTCGTAAGACACTTGGAGGGTTGA [3d1443]”, the fraction ligated came to 0.0736.

As to “TATCACTGTCGTAAGACACTTGGATGGGTTA [3d1445]”, the fraction ligated worked out at 0.775.

“TATCACTGTCGTAAGACACTTGGATGGGTTG [3d1446]” yielded a fraction ligated of 0.807.

As to “TATCACTGTCGTAAGACACTTGGATGGTTGA [3d1444]”, the fraction ligated worked out at 0.382.

For the sequence “TATCACTGTCGTAAGACACTTGGTGGGTTGA [3d1442]”, the fraction ligated came to 0.692.

With “TATCACTGTCGTAAGACACTTTATGGGTTGA [3d1447]”, the fraction ligated amounted to 0.0197.

The sequence “TATCACTGTCGTAAGACACTTTGAGGGTTGA [3d1449]” came in with a fraction ligated of 0.0155.

“TATCACTGTCGTAAGACACTTTGATGGGTTA [3d1451]”: the fraction ligated is 0.351.

Sequence “TATCACTGTCGTAAGACACTTTGATGGGTTG [3d1452]” gave a fraction ligated of 0.754.

“TATCACTGTCGTAAGACACTTTGATGGTTGA [3d1450]”: the fraction ligated came out at 0.0354.

As for “TATCACTGTCGTAAGACACTTTGGAGGGTTA [3d1458]”, the fraction ligated was found to be 0.0132.

For “TATCACTGTCGTAAGACACTTTGGAGGGTTG [3d1459]”, the fraction ligated worked out at 0.0454.

In turn, “TATCACTGTCGTAAGACACTTTGGAGGTTGA [3d1457]” returned a fraction ligated of 0.0147.

On to “TATCACTGTCGTAAGACACTTTGGATGGGTT [3d1462]”, for which the fraction ligated was found to be 0.365.

The sequence “TATCACTGTCGTAAGACACTTTGGATGGGTTA [2d145]” displayed a fraction ligated of 0.773.

Take “TATCACTGTCGTAAGACACTTTGGATGGGTTG [2d146]”: the fraction ligated amounted to 0.798.

As to TATCACTGTCGTAAGACACTTTGGATGGGTTGA [1d7], the fraction ligated worked out at 0.806.

In turn, “TATCACTGTCGTAAGACACTTTGGATGGTTA [3d1460]” registered a fraction ligated of 0.272.

Sequence “TATCACTGTCGTAAGACACTTTGGATGGTTG [3d1461]” had a fraction ligated of 0.33.

For “TATCACTGTCGTAAGACACTTTGGATGGTTGA [2d144]”, the fraction ligated was 0.513.

On to “TATCACTGTCGTAAGACACTTTGGGGGTTGA [3d1453]”, for which the fraction ligated stood at 0.0319.

The sequence “TATCACTGTCGTAAGACACTTTGGTGGGTTA [3d1455]” had a fraction ligated of 0.0411.

Take “TATCACTGTCGTAAGACACTTTGGTGGGTTG [3d1456]”: the fraction ligated worked out at 0.343.

For the sequence “TATCACTGTCGTAAGACACTTTGGTGGTTGA [3d1454]”, the fraction ligated was determined as 0.0276.

For “TATCACTGTCGTAAGACACTTTGTGGGTTGA [3d1448]”, the fraction ligated stood at 0.0145.

Regarding “TATCACTGTCGTAAGACATTGGATGGGTTGA [3d1433]”, the fraction ligated turned out to be 0.818.

“TATCACTGTCGTAAGACATTTGATGGGTTGA [3d1434]” gave a fraction ligated of 0.79.

Take “TATCACTGTCGTAAGACATTTGGAGGGTTGA [3d1436]”: the fraction ligated is 0.431.

“TATCACTGTCGTAAGACATTTGGATGGGTTA [3d1438]” yielded a fraction ligated of 0.792.

For “TATCACTGTCGTAAGACATTTGGATGGGTTG [3d1439]”, the fraction ligated was 0.82.

“TATCACTGTCGTAAGACATTTGGATGGTTGA [3d1437]” registered a fraction ligated of 0.606.

As for “TATCACTGTCGTAAGACATTTGGTGGGTTGA [3d1435]”, the fraction ligated came out at 0.752.

“TATCACTGTCGTAAGACCTTGGATGGGTTGA [3d1426]” came in with a fraction ligated of 0.809.

“TATCACTGTCGTAAGACCTTTGATGGGTTGA [3d1427]” returned a fraction ligated of 0.773.

“TATCACTGTCGTAAGACCTTTGGAGGGTTGA [3d1429]”: the fraction ligated stood at 0.133.

For the sequence “TATCACTGTCGTAAGACCTTTGGATGGGTTA [3d1431]”, the fraction ligated amounted to 0.808.

“TATCACTGTCGTAAGACCTTTGGATGGGTTG [3d1432]” showed a fraction ligated of 0.835.

In turn, “TATCACTGTCGTAAGACCTTTGGATGGTTGA [3d1430]” returned a fraction ligated of 0.628.

Sequence “TATCACTGTCGTAAGACCTTTGGTGGGTTGA [3d1428]” registered a fraction ligated of 0.441.

“TATCACTGTCGTAAGACTTTGGATGGGTTGA [3d1408]” displayed a fraction ligated of 0.856.

Sequence “TATCACTGTCGTAAGCACTTGGATGGGTTGA [3d1411]” yielded a fraction ligated of 0.745.

Regarding “TATCACTGTCGTAAGCACTTTGATGGGTTGA [3d1412]”, the fraction ligated came out at 0.686.

For the sequence “TATCACTGTCGTAAGCACTTTGGAGGGTTGA [3d1414]”, the fraction ligated was 0.0753.

The sequence “TATCACTGTCGTAAGCACTTTGGATGGGTTA [3d1416]” returned a fraction ligated of 0.752.

“TATCACTGTCGTAAGCACTTTGGATGGGTTG [3d1417]” came in with a fraction ligated of 0.816.

With “TATCACTGTCGTAAGCACTTTGGATGGTTGA [3d1415]”, the fraction ligated amounted to 0.175.

Consider “TATCACTGTCGTAAGCACTTTGGTGGGTTGA [3d1413]”, for which the fraction ligated was determined as 0.11.

“TATCACTGTCGTAAGCATTTGGATGGGTTGA [3d1410]” yielded a fraction ligated of 0.797.

The sequence “TATCACTGTCGTAAGCCTTTGGATGGGTTGA [3d1409]” had a fraction ligated of 0.815.
